Measured values: US20240100176A1 (Eli Lilly, published 2024)

Columns and labels:
[1] = biological target: T1, hexahistidine tagged human IL-4Rα ECD D66R (human, UniProt P24394 26-232); assay: capture ELISA, His-tagged receptor mutant
T1 construct: also called D66R IL-4Rα; not shown: hexahistidine tag
Description: Example 2d. […] Briefly, thirty surface amino acid residue substitutions were introduced individually into hexahistidine tagged human IL-4Rα extra cellular domain (ECD) as follows: K2D, E6R, K22D, P26R, T31R, F41A, L42G, L43G, E45R, E52R, G56R, D66R, A71R, Q82G, K87D, E94R, H107A, D108R, P124R, D125R, D143R, R148D, L155R, R160D, S164R, S168R, Q181R, P192R, K195D, or H197G. Each mutant protein having a single amino acid residue substitution as described above was transiently expressed in CHO cells and purified using standard immobilized metal affinity chromatography techniques. […] The plates were then washed 3 times with PBST and the exemplified human IL-4Rα antibody was added to the wells at a final concentration of 1 μg/mL in PBS-casein and incubated for 1 hour at room temperature. The plates were washed 3 times with PBST, the IL-4Rα mutant proteins were serially diluted 5-fold from 1 μg/mL for 3 points. in PBS-casein and added to the plate at 50 μL/well and incubated for 1 hour at room temperature. […] The plates were washed 3 times, TMB substrate (Pierce, Cat. #34028) was added per manufacturer instructions, the reaction was quenched with H₂SO₄, and absorbance was read at 450 nm on an ELISA plate reader.

[2] = biological target: T2, hexahistidine tagged human IL-4Rα ECD L42G (human, UniProt P24394 26-232); assay: capture ELISA: Ab1 on anti-human IgG Fc, His-tagged receptor at 0.04 µg/mL, anti-His HRP
T2 construct: not shown: hexahistidine tag
Description: (§1) Example 2d. […] Briefly, thirty surface amino acid residue substitutions were introduced individually into hexahistidine tagged human IL-4Rα extra cellular domain (ECD) as follows: K2D, E6R, K22D, P26R, T31R, F41A, L42G, L43G, E45R, E52R, G56R, D66R, A71R, Q82G, K87D, E94R, H107A, D108R, P124R, D125R, D143R, R148D, L155R, R160D, S164R, S168R, Q181R, P192R, K195D, or H197G. Each mutant protein having a single amino acid residue substitution as described above was transiently expressed in CHO cells and purified using standard immobilized metal affinity chromatography techniques. […] The plates were then washed 3 times with PBST and the exemplified human IL-4Rα antibody was added to the wells at a final concentration of 1 μg/mL in PBS-casein and incubated for 1 hour at room temperature. The plates were washed 3 times with PBST, the IL-4Rα mutant proteins were serially diluted 5-fold from 1 μg/mL for 3 points. in PBS-casein and added to the plate at 50 μL/well and incubated for 1 hour at room temperature. The plates were washed 3 times with PBST and a 1000-fold dilution of anti-histidine tag antibody HRP conjugate (R&D Systems, Cat. #MAB050H) in PBS-casein was added and incubated for 45 minutes at room temperature. The plates were washed 3 times, TMB substrate (Pierce, Cat. #34028) was added per manufacturer instructions, the reaction was quenched with H₂SO₄, and absorbance was read at 450 nm on an ELISA plate reader.

[3] = biological target: T3, hexahistidine tagged human IL-4Rα ECD S168R (human, UniProt P24394 26-232); assay: as above
T3 construct: not shown: hexahistidine tag
Description: as §1

[4] = biological target: T4, hexahistidine tagged human IL-4Rα ECD E6R (human, UniProt P24394 26-232); assay: as above
T4 construct: not shown: hexahistidine tag
Description: as §1

[5] = biological target: T5, hexahistidine tagged human IL-4Rα ECD K2D (human, UniProt P24394 26-232); assay: as above
T5 construct: not shown: hexahistidine tag
Description: as §1

[6] = biological target: T6, hexahistidine tagged human IL-4Rα ECD Q82G (human, UniProt P24394 26-232); assay: as above
T6 construct: not shown: hexahistidine tag
Description: as §1

[7] = biological target: T7, hexahistidine tagged human IL-4Rα ECD L43G (human, UniProt P24394 26-232); assay: as above
T7 construct: not shown: hexahistidine tag
Description: as §1

[8] = biological target: T8, hexahistidine tagged human IL-4Rα ECD P26R (human, UniProt P24394 26-232); assay: as above
T8 construct: not shown: hexahistidine tag
Description: as §1

[9] = biological target: T9, hexahistidine tagged human IL-4Rα ECD P124R (human, UniProt P24394 26-232); assay: as above
T9 construct: not shown: hexahistidine tag
Description: as §1

[10] = biological target: T10, hexahistidine tagged human IL-4Rα ECD S164R (human, UniProt P24394 26-232); assay: as above
T10 construct: not shown: hexahistidine tag
Description: as §1

[11] = biological target: T11, hexahistidine tagged human IL-4Rα ECD E52R (human, UniProt P24394 26-232); assay: as above
T11 construct: not shown: hexahistidine tag
Description: as §1

[12] = biological target: T12, hexahistidine tagged human IL-4Rα ECD G56R (human, UniProt P24394 26-232); assay: as above
T12 construct: not shown: hexahistidine tag
Description: as §1

[13] = biological target: T13, human IL-4Rα on cells (human PBMC B cells and CD4+ T cells, Daudi cells, HEK-Blue IL-4/IL-13 cells, myeloid … (human, UniProt P24394 26-825)); assay: cell-based or functional assay
T13 sequence: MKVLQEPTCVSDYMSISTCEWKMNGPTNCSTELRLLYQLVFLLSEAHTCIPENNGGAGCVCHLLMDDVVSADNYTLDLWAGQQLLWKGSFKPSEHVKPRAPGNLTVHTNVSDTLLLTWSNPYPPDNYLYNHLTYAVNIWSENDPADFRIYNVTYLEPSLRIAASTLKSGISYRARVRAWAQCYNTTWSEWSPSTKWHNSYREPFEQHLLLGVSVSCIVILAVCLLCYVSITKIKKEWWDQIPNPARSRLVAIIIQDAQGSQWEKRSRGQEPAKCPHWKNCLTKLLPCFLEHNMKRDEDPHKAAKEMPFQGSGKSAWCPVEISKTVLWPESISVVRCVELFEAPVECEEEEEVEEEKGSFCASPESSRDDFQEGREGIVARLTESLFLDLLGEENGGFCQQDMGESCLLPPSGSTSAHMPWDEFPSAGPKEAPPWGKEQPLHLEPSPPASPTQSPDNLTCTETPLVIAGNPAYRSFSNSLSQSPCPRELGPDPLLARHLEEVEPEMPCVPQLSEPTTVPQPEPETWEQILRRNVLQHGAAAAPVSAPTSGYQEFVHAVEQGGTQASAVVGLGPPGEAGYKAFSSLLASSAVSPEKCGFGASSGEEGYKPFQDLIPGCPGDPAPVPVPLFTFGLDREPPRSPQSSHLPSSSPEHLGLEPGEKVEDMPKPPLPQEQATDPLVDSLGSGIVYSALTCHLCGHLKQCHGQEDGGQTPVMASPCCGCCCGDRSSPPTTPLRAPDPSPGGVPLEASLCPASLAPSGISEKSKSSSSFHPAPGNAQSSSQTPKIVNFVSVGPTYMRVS

T4 sequence (P24394 other isoform, or with tags, fused parts or gaps): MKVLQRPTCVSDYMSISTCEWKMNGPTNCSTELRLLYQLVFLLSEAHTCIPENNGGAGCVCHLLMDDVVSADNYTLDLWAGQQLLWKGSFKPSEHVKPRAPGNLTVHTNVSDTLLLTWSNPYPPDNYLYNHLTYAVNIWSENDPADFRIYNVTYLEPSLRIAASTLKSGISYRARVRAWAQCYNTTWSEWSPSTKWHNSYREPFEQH
T5 sequence (P24394 other isoform, or with tags, fused parts or gaps): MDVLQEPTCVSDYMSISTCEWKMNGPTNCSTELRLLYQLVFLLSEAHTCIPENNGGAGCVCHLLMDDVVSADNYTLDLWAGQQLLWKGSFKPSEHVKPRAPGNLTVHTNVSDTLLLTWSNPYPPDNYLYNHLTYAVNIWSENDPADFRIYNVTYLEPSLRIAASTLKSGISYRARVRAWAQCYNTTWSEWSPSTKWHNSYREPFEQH

B1: anti-human IL-4Rα antibody Ab1 (antibody, human IgG4 S228P, kappa)
heavy: QVQLVESGGGLVQPGGSLRLSCVASGFTFSHSSMNWVRQAPGKGLEWVSYISRATGAVYYADSVKGRFTISRDNAKNSLYLQMNSLRDEDTAVYYCAREPVFDYWGQGTLVTVSSASTKGPCVFPLAPCSRSTSESTAALGCLVKDYFPEPVTVSWNSGALTSGVHTFPAVLQSSGLYSLSSVVTVPSSSLGTKTYTCNVDHKPSNTKVDKRVESKYGPPCPPCPAPEFLGGPSVFLFPPKPKDTLMISRTPEVTCVVVDVSQEDPEVKFNWYVDGVEVHNAKTKPREEQFNSTYRVVSVLTVLHQDWLNGKEYKCKVSNKGLPSSIEKTISKAKGQPREPQVYTLPPSREEMTKNQVSLTCLVKGFYPSDICVEWESNGQPENNYKTTPPVLDSDGSFFLYSRLTVDKSRWQQGNVFSCSVMHEALHNHYTQKSLSLSLG
light: DIQMTQSPSAMSASVGDRVTITCRASQDISNYLAWFQQKPGKVPTRLIYAASSLQSGVPSRFSGSGSGTEFTLTISSLQPEDFATYYCLQWSSYPRTFGQGTKVEIKRTVAAPSVFIFPPSDEQLKSGTASVVCLLNNFYPREAKVQWKVDNALQSGNSQESVTEQDSKDSTYSLSSTLTLSKADYEKHKVYACEVTHQGLSSPVTKSFNRGEC
notes: human kappa light chain; also called anti-human IL-4Rα Ab1; unconjugated Ab1
[1]
  binding result: no binding (tested: 1 µg/mL)
[2]
  ELISA (OD450): 0.965 OD450
[3]
  ELISA (OD450): 1.18 OD450
[4]
  ELISA (OD450): 0.915 OD450
[5]
  ELISA (OD450): 1.09 OD450
[6]
  ELISA (OD450): 1.1 OD450
[7]
  ELISA (OD450): 1.35 OD450
[8]
  ELISA (OD450): 0.883 OD450
[9]
  ELISA (OD450): 1.16 OD450
[10]
  ELISA (OD450): 1.4 OD450
[11]
  ELISA (OD450): 1.1 OD450
[12]
  ELISA (OD450): 1.17 OD450
[13]
  IL-4 IC50 (nM): inhibition of IL-4 induced SEAP activity in HEK-Blue IL-4R and IL-13R expressing cells: 0.08 nM
  IL-13 IC50 (nM): inhibition of IL-13 induced SEAP activity in HEK-Blue IL-4R and IL-13R expressing cells: 0.67 nM
